Laboratory results taken from the RNAGym collection of RNA variant scans (doi:10.7554/elife.90254).

B1: LINE1-mini (parent)
chain: GGCAGAGCUCAACACAGCGUGGCAAAGUGGCUGUGGCUAGACUGCC

Variants of: B1
Assay: self-cleavage, relative activity (ratio to wild type); higher = more cleavage; in vitro, sequencing; the parent is a self-cleaving ribozyme
Variant C3U G7C has a self-cleavage of 0.17.
With C3U G7U the self-cleavage was 0.11.
With C3U G7A the self-cleavage was 0.26.
C3G G27A showed a self-cleavage of 0.21.
With C3G G27C the self-cleavage was 0.13.
For C3G G27U, the self-cleavage was 0.32.
Variant C3G G7C has a self-cleavage of 0.05.
Variant C3G G7U has a self-cleavage of 0.22.
Work on C3G G7A yielded a self-cleavage of 0.49.
Variant C3G G33A has a self-cleavage of 0.23.
C3G G33C showed a self-cleavage of 0.12.
With C3G G33U the self-cleavage was 0.2.
Work on C3G G36A yielded a self-cleavage of 0.74.
In the case of C3G G36U, the self-cleavage is reported as 0.2.
With C3G G36C the self-cleavage was 0.66.
Work on C3U A11C yielded a self-cleavage of 0.06.
C3U A11U gave a self-cleavage of 0.08.
Work on C3U A11G yielded a self-cleavage of 0.03.
In the case of C3G G40A, the self-cleavage is reported as 0.39.
Variant C3G G40U has a self-cleavage of 0.13.
In the case of C3G G40C, the self-cleavage is reported as 0.1.
Work on C3U C15A yielded a self-cleavage of 0.08.
C3U C15G gave a self-cleavage of 0.08.
Variant C3U C15U has a self-cleavage of 0.32.
Work on C3U G5U yielded a self-cleavage of 0.2.
C3U G5C showed a self-cleavage of 0.27.
C3U G5A showed a self-cleavage of 0.21.
Variant C3G U28C has a self-cleavage of 0.16.
C3G U28A gave a self-cleavage of 0.22.
For C3G U28G, the self-cleavage was 0.19.
Work on C3G U38A yielded a self-cleavage of 0.18.
In the case of C3G U38G, the self-cleavage is reported as 0.05.
Variant C3G U38C has a self-cleavage of 0.22.
C3U G36C gave a self-cleavage of 0.19.
C3U G36U showed a self-cleavage of 0.22.
In the case of C3U G36A, the self-cleavage is reported as 0.34.
With C3G G35U the self-cleavage was 0.28.
Work on C3G G35A yielded a self-cleavage of 0.23.
C3G G35C showed a self-cleavage of 0.13.
In the case of C3U C10A, the self-cleavage is reported as 0.05.
C3U C10G showed a self-cleavage of 0.03.
C3U C10U gave a self-cleavage of 0.15.
Work on C3U G29A yielded a self-cleavage of 0.26.
For C3U G29U, the self-cleavage was 0.34.
C3U G29C gave a self-cleavage of 0.37.
Variant C3U G44A has a self-cleavage of 1.07.
Work on C3U C31A yielded a self-cleavage of 0.07.
With C3U C31U the self-cleavage was 0.1.
Work on C3U C31G yielded a self-cleavage of 0.04.
C3U C42U gave a self-cleavage of 0.14.
Work on C3U C42G yielded a self-cleavage of 0.07.
Variant C3U C42A has a self-cleavage of 0.09.
Variant C3G G44A has a self-cleavage of 0.35.
With C3G G44C the self-cleavage was 0.93.
C3G G44U showed a self-cleavage of 1.21.
In the case of C3U C13G, the self-cleavage is reported as 0.14.
For C3U C13A, the self-cleavage was 0.15.
With C3U C13U the self-cleavage was 0.23.
C3U A41C showed a self-cleavage of 0.09.
For C3U A41U, the self-cleavage was 0.56.
C3U A41G gave a self-cleavage of 0.12.
Variant C3G U43A has a self-cleavage of 0.41.
Work on C3G U43G yielded a self-cleavage of 0.21.
In the case of C3G U43C, the self-cleavage is reported as 0.14.
C3G G17A gave a self-cleavage of 0.14.
Variant C3G G17U has a self-cleavage of 0.15.
C3G G17C gave a self-cleavage of 0.15.
With C3U G19U the self-cleavage was 0.32.
C3U G19A showed a self-cleavage of 0.83.
Variant C3U G19C has a self-cleavage of 0.25.
C3U A14G gave a self-cleavage of 0.34.
Variant C3U A14U has a self-cleavage of 0.19.
Variant C3U A14C has a self-cleavage of 0.08.
C3U C18U showed a self-cleavage of 0.42.
In the case of C3U C18A, the self-cleavage is reported as 0.23.
In the case of C3U C18G, the self-cleavage is reported as 0.09.
C3U G27A showed a self-cleavage of 0.36.
For C3U G27C, the self-cleavage was 0.2.
Work on C3U G27U yielded a self-cleavage of 0.41.
C3G G21C showed a self-cleavage of 0.41.
For C3G G21U, the self-cleavage was 0.48.
Variant C3G G21A has a self-cleavage of 1.1.
Variant C3G U20C has a self-cleavage of 0.41.
C3G U20G showed a self-cleavage of 0.41.
Work on C3G U20A yielded a self-cleavage of 0.35.
For C3U C45G, the self-cleavage was 0.12.
For C3U C45A, the self-cleavage was 0.2.
In the case of C3U C45U, the self-cleavage is reported as 0.32.
With C3U A4U the self-cleavage was 0.15.
In the case of C3U A4C, the self-cleavage is reported as 0.26.
C3U A4G gave a self-cleavage of 0.31.
With C3G G22A the self-cleavage was 0.36.
Variant C3G G22C has a self-cleavage of 0.26.
Variant C3G G22U has a self-cleavage of 0.38.
Work on C3U A26C yielded a self-cleavage of 0.35.
Work on C3U A26G yielded a self-cleavage of 0.34.
C3U A26U gave a self-cleavage of 0.67.
C3U A39C gave a self-cleavage of 0.19.
C3U A39G gave a self-cleavage of 0.2.
Variant C3U A39U has a self-cleavage of 0.38.
Work on C3U G30C yielded a self-cleavage of 0.44.
Work on C3U G30A yielded a self-cleavage of 0.75.
In the case of C3U G30U, the self-cleavage is reported as 0.5.
Work on C3U G35A yielded a self-cleavage of 0.22.
In the case of C3U G35U, the self-cleavage is reported as 0.18.
For C3U G35C, the self-cleavage was 0.11.
With C3U C23A the self-cleavage was 0.55.
For C3U C23G, the self-cleavage was 0.46.
C3U C23U gave a self-cleavage of 0.38.
In the case of C3U, the self-cleavage is reported as 0.48.
C3U C8G gave a self-cleavage of 0.15.
In the case of C3U C8A, the self-cleavage is reported as 0.38.
For C3U C8U, the self-cleavage was 0.71.
With C3U A25U the self-cleavage was 0.52.
With C3U A25G the self-cleavage was 0.27.
For C3U A25C, the self-cleavage was 0.52.
C3U G33C gave a self-cleavage of 0.07.
C3U G33U gave a self-cleavage of 0.1.
In the case of C3U G33A, the self-cleavage is reported as 0.13.
For C3G U34G, the self-cleavage was 0.08.
With C3G U34C the self-cleavage was 0.1.
Variant C3G U34A has a self-cleavage of 0.08.
Variant C3U A12C has a self-cleavage of 0.06.
For C3U A12U, the self-cleavage was 0.35.
For C3U A12G, the self-cleavage was 0.06.
With C3G G19A the self-cleavage was 0.59.
C3G G19U gave a self-cleavage of 0.56.
In the case of C3G G19C, the self-cleavage is reported as 0.16.
Work on C3U A24G yielded a self-cleavage of 0.24.
C3U A24U showed a self-cleavage of 0.73.
With C3U A24C the self-cleavage was 0.37.
With C3G U32C the self-cleavage was 0.14.
C3G U32G gave a self-cleavage of 0.11.
Variant C3G U32A has a self-cleavage of 0.05.
C3U A6G showed a self-cleavage of 0.09.
C3U A6U showed a self-cleavage of 0.38.
Variant C3U A6C has a self-cleavage of 0.5.
C3U C37A gave a self-cleavage of 0.12.
Variant C3U C37G has a self-cleavage of 0.05.
Work on C3U C37U yielded a self-cleavage of 0.14.
Variant C3G U9A has a self-cleavage of 0.27.
C3G U9C showed a self-cleavage of 0.03.
C3G U9G gave a self-cleavage of 0.3.
C3U C46G showed a self-cleavage of 0.37.
Variant C3U C46U has a self-cleavage of 0.21.
C3U C46A gave a self-cleavage of 0.18.
C3U G21A gave a self-cleavage of 1.19.
With C3U G21U the self-cleavage was 0.41.
In the case of C3U G21C, the self-cleavage is reported as 0.47.
Work on C3U A16C yielded a self-cleavage of 0.09.
Variant C3U A16U has a self-cleavage of 0.09.
For C3U A16G, the self-cleavage was 0.16.
With C3U G40C the self-cleavage was 0.07.
Variant C3U G40A has a self-cleavage of 0.12.
For C3U G40U, the self-cleavage was 0.12.
C3U G17A gave a self-cleavage of 0.1.
With C3U G17U the self-cleavage was 0.12.
C3U G17C showed a self-cleavage of 0.18.
C3U G22C showed a self-cleavage of 0.48.
C3U G22A gave a self-cleavage of 0.34.
With C3U G22U the self-cleavage was 0.82.
With C3G G30C the self-cleavage was 0.32.
Work on C3G G30U yielded a self-cleavage of 0.71.
In the case of C3G G30A, the self-cleavage is reported as 0.82.
In the case of C3G G29C, the self-cleavage is reported as 0.43.
Work on C3G G29A yielded a self-cleavage of 0.38.
Work on C3G G29U yielded a self-cleavage of 0.55.
